From article PMC3503730, “Enhanced thermostability of a Rhizopus chinensis lipase by in vivo recombination in Pichia pastoris” (Microbial Cell Factories, 2012)

Substrate: CCCCCCCCCCCCCCCC(=O)Oc1ccc([N+](=O)[O-])cc1
Experiment: p-nitrophenol release, Lineweaver-Burk
Format: biochemical, Rhizopus microsporus
Conditions: emulsified substrate, 40°C, pH 8.5, printed Km unit is a misprint, printed kcat/Km 6.22 × 10^4 M^-1 s^-1 implies mM
Source text: p-nitrophenol release, Lineweaver-Burk on r27RCL

B1: r27RCL (Rhizopus microsporus var. chinensis) (protein)
chain: DTETVGGMTLDLPENPPPIPATSTAPSSDSGEVVTATAAQIKELTNYAGVAATAYCRSVVPGTKWDCKQCLKYVPDGKLIKTFTSLLTDTNGFILRSDAQKTIYVTFRGTNSFRSAITDMVFTFTDYSPVKGAKVHAGFLSSYNQVVKDYFPVVQDQLTAYPDYKVIVTGHSLGGAQALLAGMDLYQREKRLSPKNLSIYTVGCPRVGNNAFAYYVDSTGIPFHRTVHKRDIVPHVPPQAFGYLHPGVESWIKEDPADVQICTSNIETKQCSNSIVPFTSIADHLTYFGINEGSCL
notes: proRCL gene in pPIC9K, secreted from Pichia pastoris GS115, purified on SP-Sepharose and Phenyl-Sepharose
Work on B1 yielded a kcat of 18.9 s⁻¹ and a kcat/Km of 62200 M⁻¹ s⁻¹.
